Paper PMC6452516, “Biochemical characterization of three new α-olefin-producing P450 fatty acid decarboxylases with a halophilic property” (Biotechnology for Biofuels, 2019)

Tests used:
Experiment in all cases: GC of initial substrate consumption, Michaelis-Menten fit
Conditions in all cases: 330 μM H2O2 as co-substrate, pH 7.4, 50 mM NaH2PO4, 500 mM NaCl, 10% glycerol, 30 °C, 15–40 nM enzyme
[1] = substrate: CCCCCCCCCCCC(=O)O; format: biochemical, Jeotgalicoccus sp. ATCC 8456
Description: GC of initial substrate consumption, Michaelis-Menten fit on OleTJE

[2] = substrate: CCCCCCCCCCCC(=O)O; format: biochemical, Jeotgalicoccus aerolatus
Description: GC of initial substrate consumption, Michaelis-Menten fit on OleTJH

[3] = substrate: CCCCCCCCCCCC(=O)O; format: biochemical, Lacicoccus qingdaonensis
Description: GC of initial substrate consumption, Michaelis-Menten fit on OleTSQ

B1: OleTJE (Jeotgalicoccus sp. ATCC 8456) (protein)
chain: MATLKRDKGLDNTLKVLKQGYLYTTNQRNRLNTSVFQTKALGGKPFVVVTGKEGAEMFYNNDVVQREGMLPKRIVNTLFGKGAIHTVDGKKHVDRKALFMSLMTEGNLNYVRELTRTLWHANTQRMESMDEVNIYRESIVLLTKVGTRWAGVQAPPEDIERIATDMDIMIDSFRALGGAFKGYKASKEARRRVEDWLEEQIIETRKGNIHPPEGTALYEFAHWEDYLGNPMDSRTCAIDLMNTFRPLIAINRFVSFGLHAMNENPITREKIKSEPDYAYKFAQEVRRYYPFVPFLPGKAKVDIDFQGVTIPAGVGLALDVYGTTHDESLWDDPNEFRPERFETWDGSPFDLIPQGGGDYWTNHRCAGEWITVIIMEETMKYFAEKITYDVPEQDLEVDLNSIPGYVKSGFVIKNVREVVDRT
notes: purified recombinant P450 from E. coli, His-tagged (Ni-NTA); cloning of this control enzyme not described here
Protein B1 has a Km [1] of 41 ± 4 µM, a kcat [1] of 14.3 ± 0.467 s⁻¹ and a kcat/Km [1] of 350000 M⁻¹ s⁻¹.

B2: OleTJH (Jeotgalicoccus aerolatus) (protein)
chain: MASLKRDKGLDNTLKVMKQGYLYTTNQRNRLNTTVFETKALGGKPFAVVTGKEGAEMFYNNDIVQREGMLPKRIVNTLFGKGAIHTIDGKKHVDRKALFMSLMTEGNLNYVRELTRTLWQANTQRMESMDEVNIYRESIVLLTKVGTRWAGVQAPPEQIERIATDMDIMIDSFKGLGGVFKGYKESKAARRRVEDWLEDQILETRKGNIHPPEGTALYEFAHWEDYLGNPMDSRNCAIDLMNTFRPLIAINRFVSFGLLAMHDNPVSREKIKSEPDYAYKFAQEVRRYYPFVPFLPGKAKTDIDFQGVTIPAGHGLAIDVYGTLHDESLWEDPNEFRPERFEGWDGSPFDLIPQGGGDYWTNHRCAGEWITVIIMEETMKYFAEKVTYDVPEQDLTVDLNSIPGYVKSGFVIKNVQEVVDRR
notes: recombinant, codon-optimized gene in pET28b (NdeI/XhoI), N-terminal His6 tag, E. coli BL21(DE3), Ni-NTA
B2 gave a Km [2] of 46 ± 15 µM, a kcat [2] of 15.2 ± 1.88 s⁻¹ and a kcat/Km [2] of 333000 M⁻¹ s⁻¹.

B3: OleTSQ (Lacicoccus qingdaonensis) (protein)
chain: MATIKRDKGLDNSVKVMKQGYLYTTNQRERLGVTDGVFETRALGGKRIIVLSGKDGAELFYDNDKIERSGTLPKRVVNTLFGKGAIHTTTGKVHIDRKALFMSLMTEGNLKYLRELTRNLWFANTQRMESMDQVNVYRESIIVLTKVGTRWAGVQAPEKEIENIATDMDIMIDSFKAIGSAFKGYREAKAARRRVEDWLEDQIIQTRKGKIHPPKGTALYEFAHWKDYKGEPMDSRLCGIDLMNTFRPLIAINRFVAFGALAMYENPVAREKIKQDDDYAYMFAQEVRRFYPFVPYLPAKAKVDFQYKGYEIEKDTMLALDIYGTMHDPNVWEDPNEFYPERFKDWDGSPFDLIPQGGGDYHTNHRCAGEWMTVIIMEETMKYFASRINYDVPEQDLTVDLNSLPGYIKSGFVIENVQENVDRT
notes: as for B2
In the case of B3, the Km [3] is reported as 35 ± 10 µM, the kcat [3] is reported as 9.5 ± 0.917 s⁻¹ and the kcat/Km [3] is reported as 267000 M⁻¹ s⁻¹.
